Measured values taken from US20220073584A1 (AstraZeneca / MedImmune, published 2022).
Ends that are not written are not given here.

T1: mouse RXFP1 receptor (mouse, UniProt Q6R6I7 1-758)
T1 sequence (looked up): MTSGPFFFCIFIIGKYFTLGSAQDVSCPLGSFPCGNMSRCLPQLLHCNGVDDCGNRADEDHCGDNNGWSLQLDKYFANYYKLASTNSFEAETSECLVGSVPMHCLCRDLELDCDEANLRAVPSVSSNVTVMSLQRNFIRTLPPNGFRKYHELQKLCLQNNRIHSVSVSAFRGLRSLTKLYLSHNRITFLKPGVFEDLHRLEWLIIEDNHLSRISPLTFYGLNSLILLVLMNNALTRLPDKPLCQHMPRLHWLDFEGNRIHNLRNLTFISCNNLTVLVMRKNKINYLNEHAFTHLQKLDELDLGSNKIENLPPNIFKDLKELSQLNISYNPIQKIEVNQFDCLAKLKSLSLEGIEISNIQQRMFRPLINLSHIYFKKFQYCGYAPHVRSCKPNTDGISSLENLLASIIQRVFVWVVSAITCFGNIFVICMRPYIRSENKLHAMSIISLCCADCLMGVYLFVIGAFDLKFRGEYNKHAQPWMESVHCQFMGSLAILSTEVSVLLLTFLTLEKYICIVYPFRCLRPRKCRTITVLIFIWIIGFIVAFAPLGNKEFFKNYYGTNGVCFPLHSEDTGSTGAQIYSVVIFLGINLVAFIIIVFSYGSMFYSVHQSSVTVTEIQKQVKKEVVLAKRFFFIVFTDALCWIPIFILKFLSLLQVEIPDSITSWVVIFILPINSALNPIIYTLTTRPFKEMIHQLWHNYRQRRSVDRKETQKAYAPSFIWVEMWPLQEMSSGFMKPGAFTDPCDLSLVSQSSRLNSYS

T2: human RXFP1 receptor (human, UniProt Q9HBX9 1-757)
T2 sequence (looked up): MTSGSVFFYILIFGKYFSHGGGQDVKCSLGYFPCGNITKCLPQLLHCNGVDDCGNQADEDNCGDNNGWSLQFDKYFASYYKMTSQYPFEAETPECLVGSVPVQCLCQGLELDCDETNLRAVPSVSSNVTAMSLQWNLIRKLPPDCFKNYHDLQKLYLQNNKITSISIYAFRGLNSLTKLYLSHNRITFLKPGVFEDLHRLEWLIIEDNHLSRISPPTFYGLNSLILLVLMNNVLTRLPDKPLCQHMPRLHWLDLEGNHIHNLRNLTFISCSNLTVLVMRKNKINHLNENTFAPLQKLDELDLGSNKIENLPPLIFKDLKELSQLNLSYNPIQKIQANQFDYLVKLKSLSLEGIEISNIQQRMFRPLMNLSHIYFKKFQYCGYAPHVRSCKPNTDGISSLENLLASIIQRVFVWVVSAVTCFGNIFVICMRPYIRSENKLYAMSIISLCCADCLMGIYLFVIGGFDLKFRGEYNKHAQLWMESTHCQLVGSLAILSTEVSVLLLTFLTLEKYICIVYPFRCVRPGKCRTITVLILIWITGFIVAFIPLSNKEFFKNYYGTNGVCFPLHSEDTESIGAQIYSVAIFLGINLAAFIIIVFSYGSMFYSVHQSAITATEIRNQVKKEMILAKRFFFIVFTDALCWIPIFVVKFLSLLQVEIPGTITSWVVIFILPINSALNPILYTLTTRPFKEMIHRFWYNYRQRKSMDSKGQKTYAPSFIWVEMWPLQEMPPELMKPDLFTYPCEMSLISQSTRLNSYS


Assays:
Experiment in all cases: cell-based or functional assay
mouse RXFP1 receptor = molecular target: T1, mouse RXFP1 receptor
human RXFP2 = human RXFP2 (human, UniProt Q8WXD0 1-754)
human RXFP1 receptor [1] = molecular target: T2, human RXFP1 receptor
human RXFP1 receptor [2] = molecular target: T2, human RXFP1 receptor; remark: listed apart in the source

Chain of human RXFP2 (Q8WXD0 whole entry): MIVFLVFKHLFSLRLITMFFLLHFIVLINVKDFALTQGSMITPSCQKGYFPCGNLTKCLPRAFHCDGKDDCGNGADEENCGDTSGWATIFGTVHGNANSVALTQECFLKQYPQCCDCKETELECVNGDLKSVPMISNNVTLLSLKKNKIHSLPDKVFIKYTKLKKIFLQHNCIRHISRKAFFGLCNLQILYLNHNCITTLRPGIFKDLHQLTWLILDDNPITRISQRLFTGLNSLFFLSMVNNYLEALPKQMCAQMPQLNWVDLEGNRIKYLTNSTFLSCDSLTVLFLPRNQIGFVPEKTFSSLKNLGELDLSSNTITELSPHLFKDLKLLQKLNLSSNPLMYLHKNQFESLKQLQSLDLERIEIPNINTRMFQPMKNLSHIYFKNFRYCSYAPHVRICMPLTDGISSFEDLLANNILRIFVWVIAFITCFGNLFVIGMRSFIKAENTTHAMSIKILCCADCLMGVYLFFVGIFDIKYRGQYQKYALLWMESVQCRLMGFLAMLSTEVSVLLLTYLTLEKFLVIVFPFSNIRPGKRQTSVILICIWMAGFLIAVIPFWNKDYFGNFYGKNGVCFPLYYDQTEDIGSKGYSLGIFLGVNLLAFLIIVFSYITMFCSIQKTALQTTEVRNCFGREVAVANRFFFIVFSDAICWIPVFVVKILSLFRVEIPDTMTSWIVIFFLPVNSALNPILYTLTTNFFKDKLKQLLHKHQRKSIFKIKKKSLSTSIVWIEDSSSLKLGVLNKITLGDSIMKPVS

Binder | mRXFP1 EC50 (M), cAMP HTRF assay in CHO-K1 mRXFP1 Gs cells (mouse RXFP1 receptor) [M] | hRXFP2 EC50 (M), cAMP HTRF assay in CHO-K1 RXFP2 Gs cells (human RXFP2) [M] | hRXFP1 EC50 (M), cAMP HTRF assay in CHO-K1 RXFP1 Gs cells (human RXFP1 receptor [1]) [M] | EC50 (M), stimulation of cAMP production (HitHunter cAMP assay) in CHO-K1 RXFP1 Gs cells (human RXFP1 receptor [2]) [M]
Fc-TMΔTHTΔK_hRLX2(BA)_21-15AA (Fc fusion) GGGSACPPCPAPEFEGGPSVFLFPPKPKDTLMISRTPEVTCVVVDVSHEDPEVKFNWYVDGVEVHNAKTKPREEQYNSTYRVVSVLTVLHQDWLNGKEYKCKVSNKALPASIEKTISKAKGQPREPQVYTLPPSREEMTKNQVSLTCLVKGFYPSDIAVEWESNGQPENNYKTTPPVLDSDGSFFLYSKLTVDKSRWQQGNVFSCSVMHEALHNHYTQKSLSLSPGGGGGSGGGGSGGGGSGGGGGSSWMEEVIKLCGRELVRAQIAICGMSTWSGGGGSGGGGSGGGGSQLYSALANKCCHVGCTKRSLARFC | 8.82e-09 | > 8.22e-06 | 1.56e-08 | –
Fc-TMΔTHTΔK_hRLX2_21-15AA (Fc fusion) GGGSACPPCPAPEFEGGPSVFLFPPKPKDTLMISRTPEVTCVVVDVSHEDPEVKFNWYVDGVEVHNAKTKPREEQYNSTYRVVSVLTVLHQDWLNGKEYKCKVSNKALPASIEKTISKAKGQPREPQVYTLPPSREEMTKNQVSLTCLVKGFYPSDIAVEWESNGQPENNYKTTPPVLDSDGSFFLYSKLTVDKSRWQQGNVFSCSVMHEALHNHYTQKSLSLSPGGGGGSGGGGSGGGGSGGGGGSQLYSALANKCCHVGCTKRSLARFCGGGGSGGGGSGGGGSSWMEEVIKLCGRELVRAQIAICGMSTWS | 2.52e-09 | > 6.78e-06 | 2.6e-09 | –
hRLX2-Fc-TMΔTHTΔK_15-24AA (Fc fusion) QLYSALANKCCHVGCTKRSLARFCGGGGSGGGGSGGGGSSWMEEVIKLCGRELVRAQIAICGMSTWSAAAGGGGSGGGGSGGGGSGGGGSACPPCPAPEFEGGPSVFLFPPKPKDTLMISRTPEVTCVVVDVSHEDPEVKFNWYVDGVEVHNAKTKPREEQYNSTYRVVSVLTVLHQDWLNGKEYKCKVSNKALPASIEKTISKAKGQPREPQVYTLPPSREEMTKNQVSLTCLVKGFYPSDIAVEWESNGQPENNYKTTPPVLDSDGSFFLYSKLTVDKSRWQQGNVFSCSVMHEALHNHYTQKSLSLSPG | 2.23e-09 | > 3.09e-07 | 4.97e-09 | –
Fc-YTE-TM_hRLX2_15-15AA (Fc fusion) DKTHTCPPCPAPEFEGGPSVFLFPPKPKDTLYITREPEVTCVVVDVSHEDPEVKFNWYVDGVEVHNAKTKPREEQYNSTYRVVSVLTVLHQDWLNGKEYKCKVSNKALPASIEKTISKAKGQPREPQVYTLPPSRDELTKNQVSLTCLVKGFYPSDIAVEWESNGQPENNYKTTPPVLDSDGSFFLYSKLTVDKSRWQQGNVFSCSVMHEALHNHYTQKSLSLSPGKGGGGSGGGGSGGGGSQLYSALANKCCHVGCTKRSLARFCGGGGSGGGGSGGGGSSWMEEVIKLCGRELVRAQIAICGMSTWS | – | – | – | 5.39e-09
Fc-YTE-FQQ_hRLX2_15-15AA (Fc fusion) DKTHTCPPCPAPEFQGGPSVFLFPPKPKDTLYITREPEVTCVVVDVSHEDPEVKFNWYVDGVEVHNAKTKPREEQYNSTYRVVSVLTVLHQDWLNGKEYKCQVSNKALPAPIEKTISKAKGQPREPQVYTLPPSRDELTKNQVSLTCLVKGFYPSDIAVEWESNGQPENNYKTTPPVLDSDGSFFLYSKLTVDKSRWQQGNVFSCSVMHEALHNHYTQKSLSLSPGKGGGGSGGGGSGGGGSQLYSALANKCCHVGCTKRSLARFCGGGGSGGGGSGGGGSSWMEEVIKLCGRELVRAQIAICGMSTWS | – | – | – | 4.56e-09
hRLX2(BA)-Fc-TMΔTHTΔK_15-24AA (Fc fusion) SWMEEVIKLCGRELVRAQIAICGMSTWSGGGGSGGGGSGGGGSQLYSALANKCCHVGCTKRSLARFCAAAGGGGSGGGGSGGGGSGGGGSACPPCPAPEFEGGPSVFLFPPKPKDTLMISRTPEVTCVVVDVSHEDPEVKFNWYVDGVEVHNAKTKPREEQYNSTYRVVSVLTVLHQDWLNGKEYKCKVSNKALPASIEKTISKAKGQPREPQVYTLPPSREEMTKNQVSLTCLVKGFYPSDIAVEWESNGQPENNYKTTPPVLDSDGSFFLYSKLTVDKSRWQQGNVFSCSVMHEALHNHYTQKSLCLSPG | 8.78e-10 | > 4.33e-06 | 1.13e-09 | –
recombinant human Relaxin-2 (R&D Systems, catalogue number 6586-RN-025) (ligand, not fully specified (bridges); ends and bridges not checked; also: two interchain and one intrachain disulfide bonds, positions not given here) chain 1: QLYSALANKCCHVGCTKRSLARFC chain 2: DSWMEEVIKLCGRELVRAQIAICGMSTWS | 6.68e-11 | 1.46e-07 | 1.38e-10 | 1.06e-10
